The record followed here is US20060240044A1.

Where only a bound is given, the exact number is not on record here.

This test addresses human Vβ1.1 TcR (human). The test is described as follows: cell-based or functional assay.

As for recombinant SPE-M, the Percentage of Vβ enrichment (Vβ 1.1) came to 6.75%; the Vβ cDNA clones from toxin stimulated T cells identified as Vβ1.1 is 4 of 5 cDNAs; the stimulation of T cells carrying the Vβ1.1 TcR, against ConA (further results) is 70 times; the stimulation of T cells carrying the Vβ1.1 TcR, against ConA (initial results) is more than 60 times.
The like results for recombinant SPE-L were, in that order, 8.44%, 5 of 5 cDNAs, more than 80 times and more than 50 times.
